To fix the notation:
B1: huAb1v1CDR2v14 (antibody, V domains shown)
VH: EVQLVESGGGLVKPGGSLRLSCAASGFTFSDYGMNWVRQAPGKGLEWIAYISSGRFNIYYADTVKGRFTISRDNAKNSLYLQMNSLRAEDTAVYYCARSWGYFDVWGQGTTVTVSS
VL: DIVMTQSPDSLAVSLGERATINCKSSQSLLNRGNQKNYLTWFQQKPGQPPKLLIYWASTRESGVPDRFSGSGSGTDFTLTISSLQAEDVAVYYCQNDYTYPLTFGQGTKLEIK
B2: huAb1v1CDR2v1 (antibody, V domains shown)
VH: EVQLVESGGGLVKPGGSLRLSCAASGFTFSDYGMNWVRQAPGKGLEWIAYISSGRTNIYYADTVKGRFTISRDNAKNSLYLQMNSLRAEDTAVYYCARSWGYFDVWGQGTTVTVSS
VL: DIVMTQSPDSLAVSLGERATINCKSSQSLLNRGNQKNYLTWFQQKPGQPPKLLIYWASTRESGVPDRFSGSGSGTDFTLTISSLQAEDVAVYYCQNDYTYPLTFGQGTKLEIK
B3: huAb1v1CDR2v5 (antibody, V domains shown)
VH: EVQLVESGGGLVKPGGSLRLSCAASGFTFSDYGMNWVRQAPGKGLEWIAYISSGRVNIYYADTVKGRFTISRDNAKNSLYLQMNSLRAEDTAVYYCARSWGYFDVWGQGTTVTVSS
VL: DIVMTQSPDSLAVSLGERATINCKSSQSLLNRGNQKNYLTWFQQKPGQPPKLLIYWASTRESGVPDRFSGSGSGTDFTLTISSLQAEDVAVYYCQNDYTYPLTFGQGTKLEIK
B4: huAb1v1CDR2v17 (antibody, V domains shown)
VH: EVQLVESGGGLVKPGGSLRLSCAASGFTFSDYGMNWVRQAPGKGLEWIAYISSGRPNIYYADTVKGRFTISRDNAKNSLYLQMNSLRAEDTAVYYCARSWGYFDVWGQGTTVTVSS
VL: DIVMTQSPDSLAVSLGERATINCKSSQSLLNRGNQKNYLTWFQQKPGQPPKLLIYWASTRESGVPDRFSGSGSGTDFTLTISSLQAEDVAVYYCQNDYTYPLTFGQGTKLEIK
B5: huAb1v1CDR2v3 (antibody, V domains shown)
VH: EVQLVESGGGLVKPGGSLRLSCAASGFTFSDYGMNWVRQAPGKGLEWIAYISSGRENIYYADTVKGRFTISRDNAKNSLYLQMNSLRAEDTAVYYCARSWGYFDVWGQGTTVTVSS
VL: DIVMTQSPDSLAVSLGERATINCKSSQSLLNRGNQKNYLTWFQQKPGQPPKLLIYWASTRESGVPDRFSGSGSGTDFTLTISSLQAEDVAVYYCQNDYTYPLTFGQGTKLEIK
B6: huAb1v1CDR2v16 (antibody, V domains shown)
VH: EVQLVESGGGLVKPGGSLRLSCAASGFTFSDYGMNWVRQAPGKGLEWIAYISSGRANIYYADTVKGRFTISRDNAKNSLYLQMNSLRAEDTAVYYCARSWGYFDVWGQGTTVTVSS
VL: DIVMTQSPDSLAVSLGERATINCKSSQSLLNRGNQKNYLTWFQQKPGQPPKLLIYWASTRESGVPDRFSGSGSGTDFTLTISSLQAEDVAVYYCQNDYTYPLTFGQGTKLEIK
B7: huAb1v1CDR2v4 (antibody, V domains shown)
VH: EVQLVESGGGLVKPGGSLRLSCAASGFTFSDYGMNWVRQAPGKGLEWIAYISSGRRNIYYADTVKGRFTISRDNAKNSLYLQMNSLRAEDTAVYYCARSWGYFDVWGQGTTVTVSS
VL: DIVMTQSPDSLAVSLGERATINCKSSQSLLNRGNQKNYLTWFQQKPGQPPKLLIYWASTRESGVPDRFSGSGSGTDFTLTISSLQAEDVAVYYCQNDYTYPLTFGQGTKLEIK
B8: huAb1v1CDR2v8 (antibody, V domains shown)
VH: EVQLVESGGGLVKPGGSLRLSCAASGFTFSDYGMNWVRQAPGKGLEWIAYISSGRINIYYADTVKGRFTISRDNAKNSLYLQMNSLRAEDTAVYYCARSWGYFDVWGQGTTVTVSS
VL: DIVMTQSPDSLAVSLGERATINCKSSQSLLNRGNQKNYLTWFQQKPGQPPKLLIYWASTRESGVPDRFSGSGSGTDFTLTISSLQAEDVAVYYCQNDYTYPLTFGQGTKLEIK
B9: huAb1v1CDR2v12 (antibody, V domains shown)
VH: EVQLVESGGGLVKPGGSLRLSCAASGFTFSDYGMNWVRQAPGKGLEWIAYISSGRKNIYYADTVKGRFTISRDNAKNSLYLQMNSLRAEDTAVYYCARSWGYFDVWGQGTTVTVSS
VL: DIVMTQSPDSLAVSLGERATINCKSSQSLLNRGNQKNYLTWFQQKPGQPPKLLIYWASTRESGVPDRFSGSGSGTDFTLTISSLQAEDVAVYYCQNDYTYPLTFGQGTKLEIK
B10: huAb1v1CDR2v10 (antibody, V domains shown)
VH: EVQLVESGGGLVKPGGSLRLSCAASGFTFSDYGMNWVRQAPGKGLEWIAYISSGRWNIYYADTVKGRFTISRDNAKNSLYLQMNSLRAEDTAVYYCARSWGYFDVWGQGTTVTVSS
VL: DIVMTQSPDSLAVSLGERATINCKSSQSLLNRGNQKNYLTWFQQKPGQPPKLLIYWASTRESGVPDRFSGSGSGTDFTLTISSLQAEDVAVYYCQNDYTYPLTFGQGTKLEIK
B11: huAb1v1CDR2v13 (antibody, V domains shown)
VH: EVQLVESGGGLVKPGGSLRLSCAASGFTFSDYGMNWVRQAPGKGLEWIAYISSGRHNIYYADTVKGRFTISRDNAKNSLYLQMNSLRAEDTAVYYCARSWGYFDVWGQGTTVTVSS
VL: DIVMTQSPDSLAVSLGERATINCKSSQSLLNRGNQKNYLTWFQQKPGQPPKLLIYWASTRESGVPDRFSGSGSGTDFTLTISSLQAEDVAVYYCQNDYTYPLTFGQGTKLEIK
B12: huAb1v1CDR2v2 (antibody, V domains shown)
VH: EVQLVESGGGLVKPGGSLRLSCAASGFTFSDYGMNWVRQAPGKGLEWIAYISSGRDNIYYADTVKGRFTISRDNAKNSLYLQMNSLRAEDTAVYYCARSWGYFDVWGQGTTVTVSS
VL: DIVMTQSPDSLAVSLGERATINCKSSQSLLNRGNQKNYLTWFQQKPGQPPKLLIYWASTRESGVPDRFSGSGSGTDFTLTISSLQAEDVAVYYCQNDYTYPLTFGQGTKLEIK
B13: huAb1v1CDR2v11 (antibody, V domains shown)
VH: EVQLVESGGGLVKPGGSLRLSCAASGFTFSDYGMNWVRQAPGKGLEWIAYISSGRMNIYYADTVKGRFTISRDNAKNSLYLQMNSLRAEDTAVYYCARSWGYFDVWGQGTTVTVSS
VL: DIVMTQSPDSLAVSLGERATINCKSSQSLLNRGNQKNYLTWFQQKPGQPPKLLIYWASTRESGVPDRFSGSGSGTDFTLTISSLQAEDVAVYYCQNDYTYPLTFGQGTKLEIK
B14: huAb1v1CDR2v9 (antibody, V domains shown)
VH: EVQLVESGGGLVKPGGSLRLSCAASGFTFSDYGMNWVRQAPGKGLEWIAYISSGRQNIYYADTVKGRFTISRDNAKNSLYLQMNSLRAEDTAVYYCARSWGYFDVWGQGTTVTVSS
VL: DIVMTQSPDSLAVSLGERATINCKSSQSLLNRGNQKNYLTWFQQKPGQPPKLLIYWASTRESGVPDRFSGSGSGTDFTLTISSLQAEDVAVYYCQNDYTYPLTFGQGTKLEIK
B15: huAb1v1CDR2v15 (antibody, V domains shown)
VH: EVQLVESGGGLVKPGGSLRLSCAASGFTFSDYGMNWVRQAPGKGLEWIAYISSGRYNIYYADTVKGRFTISRDNAKNSLYLQMNSLRAEDTAVYYCARSWGYFDVWGQGTTVTVSS
VL: DIVMTQSPDSLAVSLGERATINCKSSQSLLNRGNQKNYLTWFQQKPGQPPKLLIYWASTRESGVPDRFSGSGSGTDFTLTISSLQAEDVAVYYCQNDYTYPLTFGQGTKLEIK
B16: huAb1v1CDR2v6 (antibody, V domains shown)
VH: EVQLVESGGGLVKPGGSLRLSCAASGFTFSDYGMNWVRQAPGKGLEWIAYISSGRLNIYYADTVKGRFTISRDNAKNSLYLQMNSLRAEDTAVYYCARSWGYFDVWGQGTTVTVSS
VL: DIVMTQSPDSLAVSLGERATINCKSSQSLLNRGNQKNYLTWFQQKPGQPPKLLIYWASTRESGVPDRFSGSGSGTDFTLTISSLQAEDVAVYYCQNDYTYPLTFGQGTKLEIK
B17: huAb1v6 (antibody, V domains shown)
VH: EVQLVESGGGLVKPGGSLRLSCAASGFTFSDYGMNWVRQAPGKGLEWIAYISSGRSNIYYADTVKGRFTISRDNAKNSLYLQMNSLRAEDTAVYYCARSWGYFDVWGQGTTVTVSS
VL: DIVMTQSPDSLAVSLGERATINCKSSQSLLNLGNQKNYLTWFQQKPGQPPKLLIYWASTRESGVPDRFSGSGSGTDFTLTISSLQAEDVAVYYCQNDYTYPLTFGQGTKLEIK
B18: huAb1v3 (antibody, V domains shown)
VH: EVQLVESGGGLVKPGGSLRLSCAASGFTFSDYGMNWVRQAPGKGLEWVSYISSGRSNIYYADTVKGRFTISRDNAKNSLYLQMNSLRAEDTAVYYCARSWGYFDVWGQGTTVTVSS
VL: DIVMTQSPDSLAVSLGERATINCKSSQSLLNLGNQKNYLTWFQQKPGQPPKLLIYWASTRESGVPDRFSGSGSGTDFTLTISSLQAEDVAVYYCQNDYTYPLTFGQGTKLEIK
B19: huAb1v1 (antibody, V domains shown)
VH: EVQLVESGGGLVKPGGSLRLSCAASGFTFSDYGMNWVRQAPGKGLEWIAYISSGRSNIYYADTVKGRFTISRDNAKNSLYLQMNSLRAEDTAVYYCARSWGYFDVWGQGTTVTVSS
VL: DIVMTQSPDSLAVSLGERATINCKSSQSLLNRGNQKNYLTWFQQKPGQPPKLLIYWASTRESGVPDRFSGSGSGTDFTLTISSLQAEDVAVYYCQNDYTYPLTFGQGTKLEIK
B20: huAb1v2 (antibody, V domains shown)
VH: EVQLVESGGGLVKPGGSLRLSCAASGFTFSDYGMNWVRQAPGKGLEWVSYISSGRSNIYYADTVKGRFTISRDNAKNSLYLQMNSLRAEDTAVYYCARSWGYFDVWGQGTTVTVSS
VL: DIVMTQSPDSLAVSLGERATINCKSSQSLLNTGNQKNYLTWFQQKPGQPPKLLIYWASTRESGVPDRFSGSGSGTDFTLTISSLQAEDVAVYYCQNDYTYPLTFGQGTKLEIK

T1 sequence (P25942 21-277 limits assumed): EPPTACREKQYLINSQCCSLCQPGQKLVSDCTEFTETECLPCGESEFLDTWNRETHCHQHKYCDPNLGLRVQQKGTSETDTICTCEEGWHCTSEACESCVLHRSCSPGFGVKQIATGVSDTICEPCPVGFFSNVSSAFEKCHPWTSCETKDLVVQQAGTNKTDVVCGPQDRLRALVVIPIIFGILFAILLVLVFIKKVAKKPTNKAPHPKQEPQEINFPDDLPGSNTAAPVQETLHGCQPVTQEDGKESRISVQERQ

One test has as its target T1, Human CD40 (human, UniProt P25942 21-277). As to the kind of experiment: cell-based or functional assay.
With B1, the “Antagonist: Jurkat/Reporter assay (IC50 nM)” value is 21.9 nM.

Take B2: the “Antagonist: Jurkat/Reporter assay (IC50 nM)” value was over 1000 nM.

With B3, the “Antagonist: Jurkat/Reporter assay (IC50 nM)” value was over 1000 nM.

With B4, the “Antagonist: Jurkat/Reporter assay (IC50 nM)” value is 504 nM.

B5: the “Antagonist: Jurkat/Reporter assay (IC50 nM)” value is 219 nM.

As to B6, the “Antagonist: Jurkat/Reporter assay (IC50 nM)” value was 30.1 nM.

Consider B7, for which the “Antagonist: Jurkat/Reporter assay (IC50 nM)” value came out at 563 nM.

B8: the “Antagonist: Jurkat/Reporter assay (IC50 nM)” value is over 1000 nM.

Consider B9, for which the “Antagonist: Jurkat/Reporter assay (IC50 nM)” value was 236 nM.

For B10, the “Antagonist: Jurkat/Reporter assay (IC50 nM)” value came to 23 nM.

Regarding B11, the “Antagonist: Jurkat/Reporter assay (IC50 nM)” value was determined as 62.4 nM.

As to B12, the “Antagonist: Jurkat/Reporter assay (IC50 nM)” value was over 1000 nM.

Consider B13, for which the “Antagonist: Jurkat/Reporter assay (IC50 nM)” value was over 1000 nM.

On to B14, for which the “Antagonist: Jurkat/Reporter assay (IC50 nM)” value is 7.06 nM.

Consider B15, for which the “Antagonist: Jurkat/Reporter assay (IC50 nM)” value came out at 340 nM.

Consider B16, for which the “Antagonist: Jurkat/Reporter assay (IC50 nM)” value was over 1000 nM.

The target in another test is T1, Human CD40. Briefly: cell-based or functional assay. The source holds these as a separate data set.
In the case of B17, the “Antagonist: Jurkat/Reporter assay IC50” value amounted to 85 nM.

In the case of B18, the “Agonist: huCD40 reporter assay IC50” value is 79 nM.

As to B19, the “Antagonist: Jurkat/Reporter assay IC50” value came to 55 nM.

For B20, the “Antagonist: Jurkat/Reporter assay IC50” value is over 100 nM.

The record behind these values is US20160347850A1 (AbbVie / Abbott, published 2016).
